The assay addresses ubiquitin tagged Ac-AChBP (Aplysia californica acetylcholine binding protein) (Aplysia californica). As to the kind of experiment: SEC; analytical Superdex 200 10/300 calibrated with molecular weight standards; oligomerization state in solution.

In PMC4909209 one finds stoichiometry N data, which are given here for one substance.

The substance “ubiquitin tagged Ac-AChBP (Aplysia californica acetylcholine binding protein) (natural protein)” gave a stoichiometry N of 5.
